Laboratory results reported in the supplement of paper PMC11246515.
± gives the standard deviation of the averaged measurements.

Test: total protein half-life in vivo (active degradation + dilution); higher = more stable protein
[1] = E. coli NCM3722 delta-clpP delta-lon delta-hslV, growth: N-lim chemostat, doubling time 6 h
[2] = wild type E. coli NCM3722, growth: C-lim chemostat, doubling time 3 h
[3] = wild type E. coli NCM3722, growth: C-lim chemostat, doubling time 6 h
[4] = wild type E. coli NCM3722, growth: C-lim chemostat, doubling time 12 h
[5] = wild type E. coli NCM3722, growth: N-lim chemostat, doubling time 6 h
[6] = wild type E. coli NCM3722, growth: N-lim chemostat, doubling time 12 h
[7] = wild type E. coli NCM3722, growth: P-lim chemostat, doubling time 12 h
[8] = E. coli NCM3722 delta-clpP, growth: N-lim chemostat, doubling time 6 h
[9] = E. coli NCM3722 delta-hslV, growth: N-lim chemostat, doubling time 6 h
[10] = E. coli NCM3722 delta-lon, growth: N-lim chemostat, doubling time 6 h
[11] = E. coli NCM3722 delta-smpB, growth: N-lim chemostat, doubling time 6 h
[12] = wild type E. coli NCM3722, growth: P-lim chemostat, doubling time 6 h

Row | Substance | total protein half-life in vivo [1] | total protein half-life in vivo [2] | total protein half-life in vivo [3] | total protein half-life in vivo [4] | total protein half-life in vivo [5] | total protein half-life in vivo [6] | total protein half-life in vivo [7] | total protein half-life in vivo [8] | total protein half-life in vivo [9] | total protein half-life in vivo [10] | total protein half-life in vivo [11] | total protein half-life in vivo [12]
1 | MKLNATYIKIRDKWWGLPLFLPSLILPIFAHINTFAHISSGEVFLFYLPLALMISMMMFFSWAALPGIALGIFVRKYAELGFYETLSLTANFIIIIILCWGGYRVFTPRRNNVSHGDTRLISQRIFWQIVFPATLFLILFQFAAFVGLLASRENLVGVMPFNLGTLINYQALLVGNLIGVPLCYFIIRVVRNPFYLRSYYSQLKQQVDAKVTKKEFALWLLALGALLLLLCMPLNEKSTIFSTNYTLSLLLPLMMWGAMRYGYKLISLLWAVVLMISIHSYQNYIPIYPGYTTQLTITSSSYLVFSFIVNYMAVLATRQRAVVRRIQRLAYVDPVVHLPNVRALNRALRDAPWSALCYLRIPGMEMLVKNYGIMLRIQYKQKLSHWLSPLLEPGEDVYQLSGNDLALRLNTESHQERITALDSHLKQFRFFWDGMPMQPQIGVSYCYVRSPVNHIYLLLGELNTVAELSIVTNAPENMQRRGAMYLQRELKDKVAMMNRLQQALEHNHFFLMAQPITGMRGDVYHEILLRMKGENDELISPDSFLPVAHEFGLSSSIDMWVIEHTLQFMAENRAKMPAHRFAINLSPTSVCQARFPVEVSQLLAKYQIEAWQLIFEVTESNALTNVKQAQITLQHLQELGCQIAIDDFGTGYASYARLKNVNADLLKIDGSFIRNIVSNSLDYQIVASICHLARMKKMLVVAEYVENEEIREAVLSLGIDYMQGYLIGKPQPLIDTLNEIEPIRESA | 5.56 h | 2.98 h | 5.24 h | 9.12 h | 4.99 h | 6.22 h | 11.5 h |  |  |  |  | 
2 | MSAEHVLTMLNEHEVKFVDLRFTDTKGKEQHVTIPAHQVNAEFFEEGKMFDGSSIGGWKGINESDMVLMPDASTAVIDPFFADSTLIIRCDILEPGTLQGYDRDPRSIAKRAEDYLRSTGIADTVLFGPEPEFFLFDDIRFGSSISGSHVAIDDIEGAWNSSTQYEGGNKGHRPAVKGGYFPVPPVDSAQDIRSEMCLVMEQMGLVVEAHHHEVATAGQNEVATRFNTMTKKADEIQIYKYVVHNVAHRFGKTATFMPKPMFGDNGSGMHCHMSLSKNGVNLFAGDKYAGLSEQALYYIGGVIKHAKAINALANPTTNSYKRLVPGYEAPVMLAYSARNRSASIRIPVVSSPKARRIEVRFPDPAANPYLCFAALLMAGLDGIKNKIHPGEAMDKNLYDLPPEEAKEIPQVAGSLEEALNELDLDREFLKAGGVFTDEAIDAYIALRREEDDRVRMTPHPVEFELYYSV [P0A9C5] | 5.3 ± 0.14 h | 3.39 ± 0.49 h | 6.33 ± 0.86 h | 11.5 ± 0.3 h | 4.25 ± 0.046 h | 7.49 ± 0.92 h | 12.1 ± 0.55 h | 4.58 ± 0.32 h | 4.63 ± 0.14 h | 5.06 ± 0.33 h | 4.02 ± 0.12 h | 5.8 ± 0.092 h
3 | MNNSEGLKSFQQSLADLPQWVSERLLQQINQLTNYEPVIGIMGKTGVGKSSLCNALFAGDISPVSDVAACTREPLRFRLQVGDRYITLMDLPGVGESGARDTEYAALYREQLPRLDLVLWLIKADDRALTVDEHFYHQVIGEVYRHKVLFVISQSDKAEPTSGGGQLSTAQKQNISRKICLLHELFQPVHPVCAVSVRLQWGLKVMAERMIKCLPREATSPVVSQLHPSFRTTVVREQARSDFGETVGAVLDSISAFPLIPAPVRAVIQAVRTTVVSVARAVWDFFF |  |  |  |  |  |  | 6.63 h |  |  |  | 3.51 h | 
4 | MKRVLTALAATLPFAANAADAISGAVERQPTNWQAIIMFLIFVVFTLGITYWASKRVRSRSDYYTAGGNITGFQNGLAIAGDYMSAASFLGISALVFTSGYDGLIYSLGFLVGWPIILFLIAERLRNLGRYTFADVASYRLKQGPIRILSACGSLVVVALYLIAQMVGAGKLIELLFGLNYHIAVVLVGVLMMMYVLFGGMLATTWVQIIKAVLLLFGASFMAFMVMKHVGFSFNNLFSEAMAVHPKGVDIMKPGGLVKDPISALSLGLGLMFGTAGLPHILMRFFTVSDAREARKSVFYATGFMGYFYILTFIIGFGAIMLVGANPEYKDAAGHLIGGNNMAAVHLANAVGGNLFLGFISAVAFATILAVVAGLTLAGASAVSHDLYANVFKKGATEREELRVSKITVLILGVIAIILGVLFENQNIAFMVGLAFAIAASCNFPIILLSMYWSKLTTRGAMMGGWLGLITAVVLMILGPTIWVQILGHEKAIFPYEYPALFSITVAFLGIWFFSATDNSAEGARERELFRAQFIRSQTGFGVEQGRAH |  | > 4 h | 6.1 ± 0.31 h | 12.9 ± 1.4 h |  |  | 8.62 h |  |  |  |  | 
5 | P77704 | 6.54 ± 0.9 h |  |  |  | 1.53 ± 0.3 h | 2.2 h |  |  | 1.5 h | 2.26 h | 1.31 h | 
6 | MSGQGKRLMVMAGGTGGHVFPGLAVAHHLMAQGWQVRWLGTADRMEADLVPKHGIEIDFIRISGLRGKGIKALIAAPLRIFNAWRQARAIMKAYKPDVVLGMGGYVSGPGGLAAWSLGIPVVLHEQNGIAGLTNKWLAKIATKVMQAFPGAFPNAEVVGNPVRTDVLALPLPQQRLAGREGPVRVLVVGGSQGARILNQTMPQVAAKLGDSVTIWHQSGKGSQQSVEQAYAEAGQPQHKVTEFIDDMAAAYAWADVVVCRSGALTVSEIAAAGLPALFVPFQHKDRQQYWNALPLEKAGAAKIIEQPQLSVDAVANTLAGWSRETLLTMAERARAASIPDATERVANEVSRVARA | 5.45 ± 0.24 h | 3.02 ± 0.13 h | 6.82 ± 0.71 h | 10.9 ± 0.94 h | 6.21 ± 0.43 h | 12.6 ± 0.14 h | 11.6 ± 0.54 h | 6.19 ± 0.33 h | 6.2 ± 0.14 h | 6.36 ± 0.52 h | 6.16 ± 0.19 h | 6.05 ± 0.2 h
7 | MKISPSLMCMDLLKFKEQIEFIDSHADYFHIDIMDGHFVPNLTLSPFFVSQVKKLATKPLDCHLMVTRPQDYIAQLARAGADFITLHPETINGQAFRLIDEIRRHDMKVGLILNPETPVEAMKYYIHKADKITVMTVDPGFAGQPFIPEMLDKLAELKAWREREGLEYEIEVDGSCNQATYEKLMAAGADVFIVGTSGLFNHAENIDEAWRIMTAQILAAKSEVQPHAKTA |  | 0.597 h |  |  |  |  |  |  |  |  |  | 
8 | MTTIVSVRRNGHVVIAGDGQATLGNTVMKGNVKKVRRLYNDKVIAGFAGGTADAFTLFELFERKLEMHQGHLVKAAVELAKDWRTDRMLRKLEALLAVADETASLIITGNGDVVQPENDLIAIGSGGPYAQAAARALLENTELSAREIAEKALDIAGDICIYTNHFHTIEELSYKA [P0A7B8] |  | 2.72 ± 0.33 h | 6.23 ± 0.091 h | 10.2 ± 1.4 h | 5.716 ± 0.023 h | 9.85 ± 1 h |  | 5.42 ± 0.062 h |  | 6.49 ± 0.19 h | 5.3 ± 0.5 h | 5.74 ± 0.23 h
9 | MKKLAIAGALLLLAGCAEVENYNNVVKTPAPDWLAGYWQTKGPQRALVSPEAIGSLIVTKEGDTLDCRQWQRVIAVPGKLTLMSDDLTNVTVKRELYEVERDGNTIEYDGMTMERVDRPTAECAAALDKAPLPTPLP | 7.04 ± 1.3 h | 3 ± 0.23 h | 6.16 ± 0.61 h |  | 4.4 ± 3.5 h | 12.5 ± 0.86 h | 12.4 ± 0.42 h | 6.08 ± 0.62 h | 6.36 ± 0.14 h | 7.26 ± 0.97 h | 6.12 ± 0.1 h | 6.19 ± 0.15 h
10 | MRHSVLFATAFATLISTQTFAADLPGKGITVNPVQSTITEETFQTLLVSRALEKLGYTVNKPSEVDYNVGYTSLASGDATFTAVNWTPLHDNMYEAAGGDKKFYREGVFVNGAAQGYLIDKKTADQYKITNIAQLKDPKIAKLFDTNGDGKADLTGCNPGWGCEGAINHQLAAYELTNTVTHNQGNYAAMMADTISRYKEGKPVFYYTWTPYWVSNELKPGKDVVWLQVPFSALPGDKNADTKLPNGANYGFPVSTMHIVANKAWAEKNPAAAKLFAIMQLPVADINAQNAIMHDGKASEGDIQGHVDGWIKAHQQQFDGWVNEALAAQK [P0AFM2] |  | 3.5 ± 0.29 h | 6.36 h | 5.21 h |  | 11.2 h | 13.1 h | 4.96 ± 0.067 h | 6.88 ± 1.4 h | 5.41 h | 5.41 ± 0.17 h | 6.38 h
